T1: IL-13Rα2 on human A375 and U87 cells (human, UniProt Q14627 27-380)
T1 sequence (looked up): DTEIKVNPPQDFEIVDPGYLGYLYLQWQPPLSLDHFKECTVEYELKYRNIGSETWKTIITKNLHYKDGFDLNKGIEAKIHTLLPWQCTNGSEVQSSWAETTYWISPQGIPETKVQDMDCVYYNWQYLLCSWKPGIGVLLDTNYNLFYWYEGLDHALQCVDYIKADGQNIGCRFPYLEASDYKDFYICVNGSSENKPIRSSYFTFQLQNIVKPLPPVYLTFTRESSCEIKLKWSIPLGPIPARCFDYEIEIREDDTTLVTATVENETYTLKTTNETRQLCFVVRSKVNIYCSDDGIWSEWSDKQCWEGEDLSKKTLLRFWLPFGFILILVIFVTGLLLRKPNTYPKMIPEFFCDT


Assays:
[1] = target: IL-13Rα2 on engineered EMT6 cells (EMT6-IL13Rα2); assay: cell-based or functional assay
[2] = target: T1, IL-13Rα2 on human A375 and U87 cells; assay: cell-based or functional assay
[3] = target: IL-13Rα2 on engineered EMT6 cells (EMT6-IL13Rα2); assay: cell-based or functional assay; remark: listed apart in the source
[4] = target: T1, IL-13Rα2 on human A375 and U87 cells; assay: cell-based or functional assay; remark: listed apart in the source
Fc-IL13 (1:1 KIH) = target: T2, Fc-IL13 (1:1 KIH) (human, UniProt P35225 34-146); assay: SPR
T2 construct: also called Fc-IL13 KIH
Method: Receptor binding was assessed using surface plasmon resonance (SPR) in which test constructs (i.e., Fc-MDNA132) were bound onto SPR chip surface and receptors (i.e., IL-13Rα1 and IL-13Rα2) were used as flow analytes (data not shown).
Representative SPR sensorgrams of Fc-MDNA132 and Fc-51.13 binding to […] and IL-13Rα2 is shown in (data not shown) and KD values are tabulated in Table 12. Variants contain the 5 core mutations of MDNA132 and an added mutation at amino acid position indicated in the name of the constructs.

| Binder | IC50 (pM), cytotoxicity assay, EMT6-IL13Rα2 cells, 48 h incubation [1] | IC50 (pM), cytotoxicity assay, A375 cells, 48 h incubation [2] | IC50 (pM), cytotoxicity assay, U87 cells, 48 h incubation [2] | IC50 (pM), cytotoxicity assay, EMT6-IL13Rα2 cells, 72 h incubation [3] | IC50 (pM), cytotoxicity assay, A375 cells, 72 h incubation [4] | IC50 (pM), cytotoxicity assay, U87 cells, 72 h incubation [4] | Kd (Fc-IL13 (1:1 KIH)) |
| --- | --- | --- | --- | --- | --- | --- | --- |
| cpMDNA132.15-PE (other) MTAGMYCAALESLINVSGCSAIEKTQRMLSGFCPHKVSAGQFSSLHVTGRKIEVAQFVKDLLLHLKKLFKEGQFNGGNGGPGPVPPSTAHRELIRELVNITQNQKAPLCNGSMVWSINLASGGPEGGSLAALTAHQACHLPLETFTRHRQPRGWEQLEQCGYPVQRLVALYLAARLSWNQVDQVIRNALASPGSGGDLGEAIREQPEQARLALTLAAAESERFVRQGTGNDEAGAANGPADSGDALLERNYPTGAEFLGDGGDVSFSTRGTQNWTVERLLQAHRQLEERGYVFVGYHGTFLEAAQSIVFGGVRARSQDLDAIWRGFYIAGDPALAYGYAQDQEPDARGRIRNGALLRVYVPRSSLPGFYRTSLTLAAPEAAGEVERLIGHPLPLRLDAITGPEEEGGRLETILGWPLAERTVVIPSAIPTDPRNVGGDLDPSSIPDKEQAISALPDYASQPGKPPKDEL | 1 pM | 1.5 pM | 4.2 pM | 1 pM | 1.3 pM | 7.6 pM | – |
| MDNA132.15-PE (other) GPGPVPPSTAHRELIRELVNITQNQKAPLCNGSMVWSINLTAGMYCAALESLINVSGCSAIEKTQRMLSGFCPHKVSAGQFSSLHVTGRKIEVAQFVKDLLLHLKKLFKEGQFNASGGPEGGSLAALTAHQACHLPLETFTRHRQPRGWEQLEQCGYPVQRLVALYLAARLSWNQVDQVIRNALASPGSGGDLGEAIREQPEQARLALTLAAAESERFVRQGTGNDEAGAANGPADSGDALLERNYPTGAEFLGDGGDVSFSTRGTQNWTVERLLQAHRQLEERGYVFVGYHGTFLEAAQSIVFGGVRARSQDLDAIWRGFYIAGDPALAYGYAQDQEPDARGRIRNGALLRVYVPRSSLPGFYRTSLTLAAPEAAGEVERLIGHPLPLRLDAITGPEEEGGRLETILGWPLAERTVVIPSAIPTDPRNVGGDLDPSSIPDKEQAISALPDYASQPGKPPKDEL | 2.1 pM | 1.02 pM | 11.4 pM | 1.13 pM | 1.1 pM | 208 pM | – |
| human IL-13Rα1 (receptor, UniProt P78552 22-343, looked up, also called IL-13αR1) GGGGAAPTETQPPVTNLSVSVENLCTVIWTWNPPEGASSNCSLWYFSHFGDKQDKKIAPETRRSIEVPLNERICLQVGSQCSTNESEKPSILVEKCISPPEGDPESAVTELQCIWHNLSYMKCSWLPGRNTSPDTNYTLYYWHRSLEKIHQCENIFREGQYFGCSFDLTKVKDSSFEQHSVQIMVKDNAGKIKPSFNIVPLTSRVKPDPPHIKNLSFHNDDLYVQWENPQNFISRCLFYEVEVNNSQTETHNVFYVQEAKCENPEFERNVENTSCFMVPGVLPDTLNTVRIRVKTNKLCYEDDKLWSNWSQEMSIGKKRNST | – | – | – | – | – | – | 470 nM |
| human IL-13Rα2 (receptor, UniProt Q14627 27-343, looked up, also called IL-13Ra2; human IL-13 decoy receptor) DTEIKVNPPQDFEIVDPGYLGYLYLQWQPPLSLDHFKECTVEYELKYRNIGSETWKTIITKNLHYKDGFDLNKGIEAKIHTLLPWQCTNGSEVQSSWAETTYWISPQGIPETKVQDMDCVYYNWQYLLCSWKPGIGVLLDTNYNLFYWYEGLDHALQCVDYIKADGQNIGCRFPYLEASDYKDFYICVNGSSENKPIRSSYFTFQLQNIVKPLPPVYLTFTRESSCEIKLKWSIPLGPIPARCFDYEIEIREDDTTLVTATVENETYTLKTTNETRQLCFVVRSKVNIYCSDDGIWSEWSDKQCWEGEDLSKKTLLR | – | – | – | – | – | – | 0.15 nM |

— patent US20260232820A1 (MEDICENNA THERAPEUTICS, published 2026)
